Common to all, as to test: HPLC malonyltransferase assay, Lineweaver-Burk
Common to all, as to format: biochemical, Glycine max

Substrate in data set [1]: CC(C)(COP(=O)(O)OP(=O)(O)OC[C@H]1O[C@@H](n2cnc3c(N)ncnc32)[C@H](O)[C@@H]1OP(=O)(O)O)[C@@H](O)C(=O)NCCC(=O)NCCSC(=O)CC(=O)O
The following applies: 60 μM genistin as acceptor, 20 mM potassium phosphate pH 7.2, 30°C. The source says:
(§1) HPLC malonyltransferase assay, Lineweaver-Burk on GmIMaT3

Substrate in data set [2]: O=c1c(-c2ccc(O)cc2)coc2cc(O[C@@H]3O[C@H](CO)[C@@H](O)[C@H](O)[C@H]3O)cc(O)c12
The following applies: 40 μM malonyl-CoA, 20 mM potassium phosphate pH 7.2, 30°C.
Description: as §1

Substrate in data set [3]: COc1cc2c(=O)c(-c3ccc(O)cc3)coc2cc1O[C@@H]1O[C@H](CO)[C@@H](O)[C@H](O)[C@H]1O
The following applies: 40 μM malonyl-CoA, 20 mM potassium phosphate pH 7.2, 30°C.
Description: as §1

Substrate in data set [4]: O=c1c(-c2ccc(O)cc2)coc2cc(O[C@@H]3O[C@H](CO)[C@@H](O)[C@H](O)[C@H]3O)ccc12
The following applies: 40 μM malonyl-CoA, 20 mM potassium phosphate pH 7.2, 30°C.
Description: as §1

Substrate in data set [5]: CC(C)(COP(=O)(O)OP(=O)(O)OC[C@H]1O[C@@H](n2cnc3c(N)ncnc32)[C@H](O)[C@@H]1OP(=O)(O)O)[C@@H](O)C(=O)NCCC(=O)NCCSC(=O)CC(=O)O
The following applies: 60 μM genistin as acceptor, 20 mM potassium phosphate pH 7.2, 30°C. An excerpt: (§2) HPLC malonyltransferase assay, Lineweaver-Burk on GmIMaT1
The source holds these as a separate data set.

Substrate in data set [6]: O=c1c(-c2ccc(O)cc2)coc2cc(O[C@@H]3O[C@H](CO)[C@@H](O)[C@H](O)[C@H]3O)cc(O)c12
The following applies: 40 μM malonyl-CoA, 20 mM potassium phosphate pH 7.2, 30°C.
Description: as §2
The source holds these as a separate data set.

Substrate in data set [7]: COc1cc2c(=O)c(-c3ccc(O)cc3)coc2cc1O[C@@H]1O[C@H](CO)[C@@H](O)[C@H](O)[C@H]1O
The following applies: 40 μM malonyl-CoA, 20 mM potassium phosphate pH 7.2, 30°C.
Description: as §2
This is another data set of the same source.

Substrate in data set [8]: O=c1c(-c2ccc(O)cc2)coc2cc(O[C@@H]3O[C@H](CO)[C@@H](O)[C@H](O)[C@H]3O)ccc12
The following applies: 40 μM malonyl-CoA, 20 mM potassium phosphate pH 7.2, 30°C.
Description: as §2
The source holds these as a separate data set.

B1: GmIMaT3 (Glycine max) (protein)
chain: MAETPTLRIHEVCPISPPQETPSTTIPFTFFDVLWLRLPPVERLFFYSFPNPTTTSSFFDTTILPNLKHSLSLTLHHFPPLAGTITWPLHTPLPLIAYTPGNSIPFRIAESNADFNTLSSNLSEVNNHRRNLIPHLPTSHEEASVLALQLTHFPNQGYSIGITSHHAALDGKSSTLFMKSWAHICSYLNTSPEEPLLFSLPKHLTPSFDRSVIRDPLGIGEIYAKSWTSFGGATNDRSLNVWDTLGGNQTDLVKGLFELTPLDIKKLKKLAESKFVVGDNKKKVRVTSFTVTCAYLLSCAVKAEQPNCERVHFVFNVDCRARLDPPIPETYFGNCVVALLASAKREELLGEEAFFKSVIGISEELNGLEGDVLNGADKWIPKIQSVVSETPRLFSVAGSPRFEVYGIDFGWGRPEKVDVASVNKTGAFSLSESRDHSGGIQIGLALTKNQMEAFSRVFAQGLESLES
notes: full-length ORF (467 residues), His-tagged fusion (pDEST17), E. coli BL21 (DE3), nickel resin, partially purified; cDNA from soybean roots; allele with three amino acid differences from GmMT7 and GmIF7MaT
In the case of B1, the Km is 25.59 ± 2.2 µM in data set [1], 26.67 ± 0.86 µM in data set [2], 12.94 ± 1.3 µM in data set [3] and 30.12 ± 2.6 µM in data set [4]. For the same protein, the specificity constant (kcat/Km) in data set [1] is 750000 ± 120000 M⁻¹ s⁻¹; in data set [2], 1.54e+06 ± 140000 M⁻¹ s⁻¹; in data set [3], 5.61e+06 ± 1.25e+06 M⁻¹ s⁻¹; in data set [4], 1.15e+06 ± 120000 M⁻¹ s⁻¹.

B2: GmIMaT1 (Glycine max) (protein)
chain: MASHNIKIHDHLRVSPPSATEISLSLTFFDLFWLRFHPVERIFFYTLPTPHSNPSIFYSKLVPKLKTSLSRTLQHFPPLAGNVVWPDNTPNPTVQYTPGDSVSLVVAESEADFNHVLDNSPHKASELRCLVPHLDSSDSHASVVSFQITLFPNRGFSIGISTHHAVLDGKSSTIFIKAWASLCKTYNDDESSESSSPSLAPELKPFFDRTAIKDPSEIGLNFTVNWTEILTKFFPNENSDGRCLKLLPFPPRLEDHVRASFALTGADLEKLRKRVLSKWDIVDRGAESEPPRLSSFVLTCAYALACIAKAIHGVEKEKEKFAFAFTVDCRARLEPPIHDNYFGNCVWGHVVDAEPLDFIKEEAFAIVAKSIHSKIKMILDEGIFHGMESAFSRYESLGKDGVEIMGIAGSNRFGVYGTDFGWGKPAKVEIASVDRALTIGFAESKDGNDGVQVGLVLKKHVMDLFCTLFRQGMLDD
notes: full-length ORF (476 residues), His-tagged fusion (pDEST17), E. coli BL21 (DE3), nickel resin, partially purified; cDNA from soybean roots
In the case of B2, the Km in data set [5] was 18.30 ± 1.2 µM; in data set [6], 23.04 ± 1.5 µM; in data set [7], 13.11 ± 0.92 µM; in data set [8], 36.28 ± 3.2 µM. For the same protein, the kcat/Km was found to be 440000 ± 70000 M⁻¹ s⁻¹ in data set [5], 2.47e+06 ± 100000 M⁻¹ s⁻¹ in data set [6], 5.21e+06 ± 140000 M⁻¹ s⁻¹ in data set [7] and 820000 ± 10000 M⁻¹ s⁻¹ in data set [8].

The values above are taken from PMC5433297, “Isoflavone Malonyltransferases GmIMaT1 and GmIMaT3 Differently Modify Isoflavone Glucosides in Soybean (Glycine max) under Various Stresses” (Frontiers in Plant Science, 2017).
